Results reported in US20030229207A1 (published 2003).

How the values were obtained:
[1] = target: rat CD5 antigen present on rat T cells (rat) (UniProt P51882); assay: flow cytometry, rat blood cells 3 h after 0.5 mg/kg i.v.
[2] = target: rat CD5 antigen present on rat T cells (rat) (UniProt P51882); assay: flow cytometry, rat spleen cells 3 h after 0.5 mg/kg i.v.
[3] = target: rat CD5 antigen present on rat T cells (rat) (UniProt P51882); assay: flow cytometry, rat lymph node cells 3 h after 0.5 mg/kg i.v.
[4] = target: T1, human CD5 cell differentiation marker (human, UniProt P06127 25-495); assay: FACS-based competitive assay, experiment 2; reference mouse H65 = 100%
T1 construct: whole, on cells; Cell-surface CD5; also called CD5 antigen; gp67
T1 sequence (looked up): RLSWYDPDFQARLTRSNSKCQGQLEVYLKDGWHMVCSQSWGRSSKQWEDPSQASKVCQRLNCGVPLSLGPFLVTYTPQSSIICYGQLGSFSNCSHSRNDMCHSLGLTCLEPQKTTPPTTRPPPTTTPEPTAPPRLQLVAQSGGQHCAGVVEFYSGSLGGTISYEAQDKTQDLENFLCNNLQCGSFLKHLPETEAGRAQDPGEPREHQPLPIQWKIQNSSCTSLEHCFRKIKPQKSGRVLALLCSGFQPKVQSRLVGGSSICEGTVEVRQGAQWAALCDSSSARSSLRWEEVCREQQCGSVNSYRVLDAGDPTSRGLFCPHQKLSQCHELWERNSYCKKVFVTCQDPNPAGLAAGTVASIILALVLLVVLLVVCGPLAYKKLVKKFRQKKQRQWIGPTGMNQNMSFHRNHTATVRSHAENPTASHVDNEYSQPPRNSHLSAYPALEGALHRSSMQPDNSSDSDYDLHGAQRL

[5] = target: T1, human CD5 cell differentiation marker; assay: competition with 0.1 nM ^125I-cH65 IgG on Molt-4M cells, fitted with MacLigand
Description: Competitive binding was performed as follows: 100 μl of Molt-4M cells were washed two times in ice-cold DHB binding buffer (Dubellco's modified Eagle's medium (Gibco, 320-1965PJ), 1.0% BSA and 10 mM Hepes at pH 7.2.-7.4). Cells were resuspended in the same buffer, plated into 96 v-bottomed wells (Costar) at 3×10⁵ cells per well and pelleted at 4° C. by centrifugation for 5 min at 1,000 rpm using a Beckman JS 4.2 rotor; 50 μl of 2×-concentrated 0.1 nM ¹²⁵I-cH65 IgG in DHB was then added to each well and competed with 50 μl of 2×-concentrated cH65 IgG or humanized antibody in DHB at final antibody concentrations from 100 nM to 0.0017 nM. Humanized antibody was obtained from culture supernatants of Sp2/0 clone C1718 which expresses he3 IgG. The concentration of the antibody in the supernatants was established by ELISA using a chimeric antibody as a standard. The concentration of the antibody in the purified preparation was determined by […] to proceed at 4° C. for 5 hrs and was terminated by washing cells three times with 200 Al of DHB binding buffer by centrifugation for 5 min at 1,000 rpm. All buffers and operations were at 4° C. Radioactivity was determined by solubilizing cells in 100 μl of 1.0 M NaOH and counting in a Cobra II auto gamma counter (Packard). Data from binding experiments were analyzed by the weighted nonlinear least squares curve fitting program, MacLigand, a Macintosh version of the computer program “Ligand” from Munson, Analyt. Biochem., 107:220 (1980). Objective statistical criteria (F, test, extra sum squares principle) were used to evaluate goodness of fit and for discriminating between models. Nonspecific binding was treated as a parameter subject to error and was fitted simultaneously with other parameters.

[6] = target: T1, human CD5 cell differentiation marker; assay: FACS-based competitive assay, experiment 1; reference mouse H65 = 100%
[7] = target: T1, human CD5 cell differentiation marker; assay: FACS-based competitive assay, mean of 3 experiments ± SD; reference mouse H65 = 100%
[8] = target: T1, human CD5 cell differentiation marker; assay: FACS-based competitive assay, experiment 3; reference mouse H65 = 100%

rat CD5 antigen present on rat T cells (rat), sequence (P51882 24-491): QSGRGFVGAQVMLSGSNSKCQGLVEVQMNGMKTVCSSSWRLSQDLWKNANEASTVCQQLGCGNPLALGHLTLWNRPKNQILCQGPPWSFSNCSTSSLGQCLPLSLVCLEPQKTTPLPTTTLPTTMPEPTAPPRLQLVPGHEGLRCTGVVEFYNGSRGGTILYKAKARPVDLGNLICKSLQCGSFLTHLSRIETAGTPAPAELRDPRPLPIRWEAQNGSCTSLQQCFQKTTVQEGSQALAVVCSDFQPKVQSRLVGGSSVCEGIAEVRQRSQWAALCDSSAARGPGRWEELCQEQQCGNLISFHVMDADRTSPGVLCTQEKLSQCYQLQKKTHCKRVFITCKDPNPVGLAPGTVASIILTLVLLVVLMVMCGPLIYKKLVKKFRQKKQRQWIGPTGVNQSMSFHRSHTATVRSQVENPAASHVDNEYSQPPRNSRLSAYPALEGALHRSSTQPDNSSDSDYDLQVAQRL

In the case of OX19 MoAb (antibody), the % of CD4 cells positive for surface-bound mouse IgG1 (CD4/mIgG1) [1] is reported as 96.2%, the % of CD8 cells positive for surface-bound mouse IgG1 (CD8/mIgG1) [1] is reported as 70.2% and the % of CD4 cells positive for surface-bound mouse IgG1 (CD4/mIgG1) [2] is reported as 84.8%. For the same molecule, the % of CD8 cells positive for surface-bound mouse IgG1 (CD8/mIgG1) [2] was 73.6%, the % of CD4 cells positive for surface-bound mouse IgG1 (CD4/mIgG1) [3] was 96.2% and the % of CD8 cells positive for surface-bound mouse IgG1 (CD8/mIgG1) [3] was 96.8%.

B1: chimeric H65 IgG (antibody, V domains shown)
VH: QIQLVQSGPELKKPGETVKISCKASGYTFTNYGMNWVKQAPGKGLRWMGWINTHTGEPTYADDFKGRFAFSLETSASTAYLQINNLKNEDTATYFCTRRGYDWYFDVWGAGTTVTVSS
VL: DIKMTQSPSSMYASLGERVTITCKASQDINSYLSWFQQKPGKSPKTLIYRANRLVDGVPSRFSGSGSGQDYSLTISSLDYEDMGIYYCQQYDESPWTFGGGTKLEIK
notes: Light and heavy chain each consist of unmodified mouse V/J-segments fused to a human C-segment (human kappa / human gamma by the ELISA used); also called purified cH65 IgG
For B1, the “cH65 Affinity Relative to H65 (100%)” value [4] was 106%, the Kd [5] was 2.3 nM and the “cH65 Affinity Relative to H65 (100%)” value [6] was 113%. For the same molecule, the “cH65 Affinity Relative to H65 (100%)” value [7] was 105% and the “cH65 Affinity Relative to H65 (100%)” value [8] was 96.3%.

B2: low risk humanized H65 (he1) IgG (antibody, V domains shown)
VH: QIQLVQSGPGLKKPGGSVRISCAASGYTFTNYGMNWVKQAPGKGLRWMGWINTHTGEPTYADDFKGRFTFSLDTSKSTAYLQINSLRAEDTATYFCTRRGYDWYFDVWGQGTTVTVSS
VL: DIQMTQSPSSMSASLGDRVTITCRASQDINSYLSWFQQKPGKSPKTLIYRANRLVDGVPSRFSGSGSGTDYTLTISSLQYEDFGIYYCQQYDESPWTFGGGTKLEIK
notes: Whole IgG with human constant regions (detected with anti-human kappa and anti-human gamma), expressed transiently in CHO-K1; also called he1 H65 antibody; hH65
With B2 the Kd [5] was 2.1 nM.

B3: chimeric H65 Fab (Fab, V domains shown)
VH: QIQLVQSGPELKKPGETVKISCKASGYTFTNYGMNWVKQAPGKGLRWMGWINTHTGEPTYADDFKGRFAFSLETSASTAYLQINNLKNEDTATYFCTRRGYDWYFDVWGAGTTVTVSS
VL: DIKMTQSPSSMYASLGERVTITCKASQDINSYLSWFQQKPGKSPKTLIYRANRLVDGVPSRFSGSGSGQDYSLTISSLDYEDMGIYYCQQYDESPWTFGGGTKLEIK
notes: Fab of the chimeric H65 antibody; also called Chimeric Fab
In the case of B3, the Kd [5] is reported as 18.4 nM.

B4: low-risk he1 Fab (Fab, V domains shown)
VH: QIQLVQSGPGLKKPGGSVRISCAASGYTFTNYGMNWVKQAPGKGLRWMGWINTHTGEPTYADDFKGRFTFSLDTSKSTAYLQINSLRAEDTATYFCTRRGYDWYFDVWGQGTTVTVSS
VL: DIQMTQSPSSMSASLGDRVTITCRASQDINSYLSWFQQKPGKSPKTLIYRANRLVDGVPSRFSGSGSGTDYTLTISSLQYEDFGIYYCQQYDESPWTFGGGTKLEIK
notes: also called hel Fab; Low-Risk Fab
B4 was tested, and the Kd [5] was 14.3 nM.

B5: he3 Fab (Fab, V domains shown)
VH: EIQLVQSGGGLVKPGGSVRISCAASGYTFTNYGMNWVRQAPGKGLEWMGWINTHTGEPTYADSFKGRFTFSLDDSKNTAYLQINSLRAEDTAVYFCTRRGYDWYFDVWGQGTTVTVSS
VL: DIQMTQSPSSLSASVGDRVTITCRASQDINSYLSWFQQKPGKAPKTLIYRANRLESGVPSRFSGSGSGTDYTLTISSLQYEDFGIYYCQQYDESPWTFGGGTKLEIK
notes: Fab (he3 kappa and Fd) expressed in E. coli E104 from pING4628; also called Moderate-Risk Fab
In the case of B5, the Kd [5] is reported as 2.2 nM.
